Measured values reported in EP3837551B1 (Medizinische Hochschule Hannover, dated 2024).

T1: Serum-derived FHR1 (FHR1 from normal human serum, NHS) (human, UniProt Q03591 19-330)
T1 construct: mature; The background text says serum FHR1 circulates as homodimers and as heterodimers with FHR2; also called FHR1 from NHS
T1 sequence (looked up): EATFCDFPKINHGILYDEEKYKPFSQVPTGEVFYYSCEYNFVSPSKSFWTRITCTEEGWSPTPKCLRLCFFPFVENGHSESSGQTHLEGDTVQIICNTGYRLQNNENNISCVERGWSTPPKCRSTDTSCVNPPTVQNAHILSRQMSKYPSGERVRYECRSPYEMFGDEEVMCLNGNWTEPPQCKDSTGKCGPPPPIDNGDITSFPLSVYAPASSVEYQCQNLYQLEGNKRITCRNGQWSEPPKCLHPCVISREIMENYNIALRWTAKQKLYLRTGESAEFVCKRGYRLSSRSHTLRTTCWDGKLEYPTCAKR

T2: Recombinant FHR2, expressed in Pichia pastoris (human, UniProt P36980 19-270)
T2 construct: also called CFHR2
T2 sequence (looked up): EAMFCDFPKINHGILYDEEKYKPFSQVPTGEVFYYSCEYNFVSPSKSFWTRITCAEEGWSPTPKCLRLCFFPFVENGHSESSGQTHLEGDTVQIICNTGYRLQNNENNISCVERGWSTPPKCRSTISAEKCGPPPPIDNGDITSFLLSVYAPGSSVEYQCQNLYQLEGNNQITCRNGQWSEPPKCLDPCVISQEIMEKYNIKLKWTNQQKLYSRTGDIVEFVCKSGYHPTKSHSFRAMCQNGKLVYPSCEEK


Columns and labels:
BSA = molecular target: T3, BSA (UniProt P02769 25-607); assay: ELISA, BSA coated at 5 ug/mL, FHR1 detected with polyclonal FHR1 antibody
T3 construct: Control protein coated on the plate

[1] = molecular target: T1, Serum-derived FHR1 (FHR1 from normal …); assay: ELISA, FHR1 SCR1-2 immobilized, 5% NHS, detection with mAb C18
[2] = molecular target: T2, Recombinant FHR2, expressed in Pichia …; assay: competition ELISA, FHR2 at 0-15 ug/mL against serum FHR1 on immobilized FHR1 SCR1-2

T3 sequence (P02769 25-607 limits assumed): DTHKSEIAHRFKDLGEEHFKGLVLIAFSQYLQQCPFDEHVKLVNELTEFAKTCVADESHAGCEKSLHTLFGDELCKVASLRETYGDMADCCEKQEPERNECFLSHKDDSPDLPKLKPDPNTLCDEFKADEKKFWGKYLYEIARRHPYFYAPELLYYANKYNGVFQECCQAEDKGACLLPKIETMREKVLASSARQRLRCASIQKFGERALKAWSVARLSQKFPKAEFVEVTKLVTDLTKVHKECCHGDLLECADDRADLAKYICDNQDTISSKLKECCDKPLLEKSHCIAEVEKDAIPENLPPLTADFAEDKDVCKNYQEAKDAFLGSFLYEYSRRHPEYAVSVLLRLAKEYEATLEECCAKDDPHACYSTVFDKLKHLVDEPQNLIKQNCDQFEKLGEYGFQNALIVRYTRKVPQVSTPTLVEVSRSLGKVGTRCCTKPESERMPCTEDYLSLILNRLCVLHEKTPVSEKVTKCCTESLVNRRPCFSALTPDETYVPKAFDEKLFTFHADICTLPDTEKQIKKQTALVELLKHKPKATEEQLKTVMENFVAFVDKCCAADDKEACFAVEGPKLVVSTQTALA

| binding result (BSA) | binding result [1] | binding result [2] | Binder |
| --- | --- | --- | --- |
| no binding (tested: 30 ug/mL FHR1) | – | – | Recombinant factor H related protein 1 (FHR1), expressed in Pichia pastoris (other, human, UniProt Q03591 19-330, looked up, also called CFHR1; Complement Factor H-Related Protein 1) EATFCDFPKINHGILYDEEKYKPFSQVPTGEVFYYSCEYNFVSPSKSFWTRITCTEEGWSPTPKCLRLCFFPFVENGHSESSGQTHLEGDTVQIICNTGYRLQNNENNISCVERGWSTPPKCRSTDTSCVNPPTVQNAHILSRQMSKYPSGERVRYECRSPYEMFGDEEVMCLNGNWTEPPQCKDSTGKCGPPPPIDNGDITSFPLSVYAPASSVEYQCQNLYQLEGNKRITCRNGQWSEPPKCLHPCVISREIMENYNIALRWTAKQKLYLRTGESAEFVCKRGYRLSSRSHTLRTTCWDGKLEYPTCAKR |
| – | binds | binds | Recombinant FHR1 SCR1-2 (N-terminal fragment of FHR1) (other, human, UniProt Q03591 19-142, looked up, domain: SCR1-2; Expressed in P. pastoris; also called SCR1-2 of FHR1) EATFCDFPKINHGILYDEEKYKPFSQVPTGEVFYYSCEYNFVSPSKSFWTRITCTEEGWSPTPKCLRLCFFPFVENGHSESSGQTHLEGDTVQIICNTGYRLQNNENNISCVERGWSTPPKCRS |
